Measured values taken from the supplement of paper PMC11246515.
± gives the standard deviation of the averaged measurements.

Assay: total protein half-life in vivo (active degradation + dilution); higher = more stable protein
[1] = E. coli NCM3722 delta-clpP delta-lon delta-hslV, growth: N-lim chemostat, doubling time 6 h
[2] = E. coli NCM3722 delta-clpP, growth: N-lim chemostat, doubling time 6 h
[3] = E. coli NCM3722 delta-hslV, growth: N-lim chemostat, doubling time 6 h
[4] = E. coli NCM3722 delta-lon, growth: N-lim chemostat, doubling time 6 h
[5] = E. coli NCM3722 delta-smpB, growth: N-lim chemostat, doubling time 6 h
[6] = wild type E. coli NCM3722, growth: C-lim chemostat, doubling time 3 h
[7] = wild type E. coli NCM3722, growth: C-lim chemostat, doubling time 6 h
[8] = wild type E. coli NCM3722, growth: C-lim chemostat, doubling time 12 h
[9] = wild type E. coli NCM3722, growth: N-lim chemostat, doubling time 6 h
[10] = wild type E. coli NCM3722, growth: P-lim chemostat, doubling time 6 h
[11] = wild type E. coli NCM3722, growth: P-lim chemostat, doubling time 12 h
[12] = wild type E. coli NCM3722, growth: N-lim chemostat, doubling time 12 h

| Sequence | total protein half-life in vivo [1] [h] | total protein half-life in vivo [2] [h] | total protein half-life in vivo [3] [h] | total protein half-life in vivo [4] [h] | total protein half-life in vivo [5] [h] | total protein half-life in vivo [6] [h] | total protein half-life in vivo [7] [h] | total protein half-life in vivo [8] [h] | total protein half-life in vivo [9] [h] | total protein half-life in vivo [10] [h] | total protein half-life in vivo [11] [h] | total protein half-life in vivo [12] [h] |
| --- | --- | --- | --- | --- | --- | --- | --- | --- | --- | --- | --- | --- |
| MAYKHILIAVDLSPESKVLVEKAVSMARPYNAKVSLIHVDVNYSDLYTGLIDVNLGDMQKRISEETHHALTELSTNAGYPITETLSGSGDLGQVLVDAIKKYDMDLVVCGHHQDFWSKLMSSARQLINTVHVDMLIVPLRDEEE [P0AED0] | 3.96 | 4.94 ± 0.073 | 4.31 ± 0.27 | 4.3 ± 0.64 | 4.52 ± 0.15 | 3.34 ± 0.46 | 5.16 ± 0.1 | 10.7 ± 1.6 | 4.305 ± 0.0018 | 5.92 ± 0.084 | 9.86 ± 1.9 |  |
| MAYLVAVTACVSGVAHTYMAAERLEKLCLLEKWGVSIETQGALGTENRLADEDIRRADVALLITDIELAGAERFEHCRYVQCSIYAFLREPQRVMSAVRKVLSAPQQTHLILE | 4.98 |  |  |  |  |  |  |  |  |  |  |  |
| MAYQSQDIIRRSATNGLTPAPQARDFQEEVAKLIDVTTCIGCKACQVACSEWNDIRDTVGNNIGVYDNPNDLSAKSWTVMRFSEVEQNDKLEWLIRKDGCMHCSDPGCLKACPAEGAIIQYANGIVDFQSEQCIGCGYCIAGCPFDIPRLNPEDNRVYKCTLCVDRVVVGQEPACVKTCPTGAIHFGTKESMKTLASERVAELKTRGYDNAGLYDPAGVGGTHVMYVLHHADKPNLYHGLPENPEISETVKFWKGIWKPLAAVGFAATFAASIFHYVGVGPNRADEEENNLHEEKDEERK [P0AAJ5] | 4.44 ± 0.47 |  | 3.37 |  | 3.15 |  | 6.15 | 7.88 | 5.98 ± 0.62 | 5.29 |  |  |
| MAYRDQPLGELALSIPRASALFRKYDMDYCCGGKQTLARAAARKELDVEVIEAELAKLAEQPIEKDWRSAPLAEIIDHIIVRYHDRHREQLPELILQATKVERVHADKPSVPKGLTKYLTMLHEELSSHMMKEEQILFPMIKQGMGSQAMGPISVMESEHDEAGELLEVIKHTTNNVTPPPEACTTWKAMYNGINELIDDLMDHISLENNVLFPRALAGE |  |  |  | > 8 | 2.54 | 2.72 |  |  |  |  |  |  |
| MAYSIGIDSGSTATKGILLADGVITRRFLVPTPFRPATAITEAWETLREGLETTPFLTLTGYGRQLVDFADKQVTEISCHGLGARFLAPATRAVIDIGGQDSKVIQLDDDGNLCDFLMNDKCAAGTGRFLEVISRTLGTSVEQLDSITENVTPHAITSMCTVFAESEAISLRSAGVAPEAILAGVINAMARRSANFIARLSCEAPILFTGGVSHCQKFARMLESHLRMPVNTHPDAQFAGAIGAAVIGQRVRTRR | 4.12 | 4.27 |  |  |  | 2.01 ± 0.18 | 3.66 ± 0.33 | 6.35 ± 0.44 |  |  |  |  |
| MAYTTFSQTKNDQLKEPMFFGQPVNVARYDQQKYDIFEKLIEKQLSFFWRPEEVDVSRDRIDYQALPEHEKHIFISNLKYQTLLDSIQGRSPNVALLPLISIPELETWVETWAFSETIHSRSYTHIIRNIVNDPSVVFDDIVTNEQIQKRAEGISSYYDELIEMTSYWHLLGEGTHTVNGKTVTVSLRELKKKLYLCLMSVNALEAIRFYVSFACSFAFAERELMEGNAKIIRLIARDEALHLTGTQHMLNLLRSGADDPEMAEIAEECKQECYDLFVQAAQQEKDWADYLFRDGSMIGLNKDILCQYVEYITNIRMQAVGLDLPFQTRSNPIPWINTWLVSDNVQVAPQEVEVSSYLVGQIDSEVDTDDLSNFQL | 4.55 ± 0.57 | 4.92 ± 1.1 | 3.45 ± 0.054 | 4.25 ± 0.52 | 3.62 ± 0.26 | 3.04 ± 0.28 | 5.7 ± 0.76 | 9.25 ± 0.099 | 3.415 ± 0.022 | 5.24 ± 0.12 | 9.5 ± 0.26 | 5.12 ± 0.56 |
| MCEGYVEKPLYLLIAEWMMAENRWVIAREISIHFDIEHSKAVNTLTYILSEVTEISCEVKMIPNKLEGRGCQCQRLVKVVDIDEQIYARLRNNSREKLVGVRKTPRIPAVPLTELNREQKWQMMLSKSMRR [P0AE58] | 3.96 ± 0.18 |  |  |  |  |  |  |  |  |  |  |  |
| MCIGVPGQVLAVGEDIHQLAQVEVCGIKRDVNIALICEGNPADLLGQWVLVHVGFAMSIIDEDEAKATLDALRQMDYDITSA [P0AAM7] | 4.75 ± 0.12 |  |  |  |  |  | 2.77 |  |  |  | 2.51 |  |
| MDAKQTRQGVLLALAAYFIWGIAPAYFKLIYYVPADEILTHRVIWSFFFMVVLMSICRQWSYLKTLIQTPQKIFMLAVSAVLIGGNWLLFIWAVNNHHMLEASLGYFINPLVNIVLGMIFLGERFRRMQWLAVILAICGVLVQLWTFGSLPIIALGLAFSFAFYGLVRKKIAVEAQTGMLIETMWLLPVAAIYLFAIADSSTSHMGQNPMSLNLLLIAAGIVTTVPLLCFTAAATRLRLSTLGFFQYIGPTLMFLLAVTFYGEKPGADKMVTFAFIWVALAIFVMDAIYTQRRTSK |  |  |  |  |  |  |  |  |  |  |  | 7.87 |
| MDDCGAILHNIETKWLYDFLTLEKCRNFSQAAVSRNVSQPAFSRRIRALEQAIGVELFNRQVTPLQLSEQGKIFHSQIRHLLQQLESNLAELRGGSDYAQRKIKIAAAHSLSLGLLPSIISQMPPLFTWAIEAIDVDEAVDKLREGQSDCIFSFHDEDLLEAPFDHIRLFESQLFPVCASDEHGEALFNLAQPHFPLLNYSRNSYMGRLINRTLTRHSELSFSTFFVSSMSELLKQVALDGCGIAWLPEYAIQQEIRSGKLVVLNRDELVIPIQAYAYRMNTRMNPVAERFWRELRELEIVLS | 5 ± 0.22 |  | 4.98 | 4.5 |  | 2.52 | 5.18 |  | 5.51 |  | 10.4 ± 0.27 |  |
| MDDIVNSVPSWMFTAIIAVCILFIIGIIFARLYRRASAEQAFVRTGLGGQKVVMSGGAIVMPIFHEIIPINMNTLKLEVSRSTIDSLITKDRMRVDVVVAFFVRVKPSVEGIATAAQTLGQRTLSPEDLRMLVEDKFVDALRATAAQMTMHELQDTRENFVQGVQNTVAEDLSKNGLELESVSLTNFNQTSKEHFNPNNAFDAEGLTKLTQETERRRRERNEVEQDVEVAVREKNRDALSRKLEIEQQEAFMTLEQEQQVKTRTAEQNARIAAFEAERRREAEQTRILAERQIQETEIDREQAVRSRKVEAEREVRIKEIEQQQVTEIANQTKSIAIAAKSEQQSQAEARANLALAEAVSAQQNVETTRQTAEADRAKQVALIAAAQDAETKAVELTVRAKAEKEAAEMQAAAIVELAEATRKKGLAEAEAQRALNDAINVLSDEQTSLKFKLALLQALPAVIEKSVEPMKSIDGIKIIQVDGLNRGGAAGDANTGNVGGGNLAEQALSAALSYRTQAPLIDSLLNEIGVSGGSLAALTSPLTSTTPVEEKAE |  | 4.22 |  |  | 3.89 |  |  | 9.53 | 3.81 | 6.67 | 12.3 |  |
| MDDQLKQSALDFHEFPVPGKIQVSPTKPLATQRDLALAYSPGVAAPCLEIEKDPLKAYKYTARGNLVAVISNGTAVLGLGNIGALAGKPVMEGKGVLFKKFAGIDVFDIEVDELDPDKFIEVVAALEPTFGGINLEDIKAPECFYIEQKLRERMNIPVFHDDQHGTAIISTAAILNGLRVVEKNISDVRMVVSGAGAAAIACMNLLVALGLQKHNIVVCDSKGVIYQGREPNMAETKAAYAVVDDGKRTLDDVIEGADIFLGCSGPKVLTQEMVKKMARAPMILALANPEPEILPPLAKEVRPDAIICTGRSDYPNQVNNVLCFPFIFRGALDVGATAINEEMKLAAVRAIAELAHAEQSEVVASAYGDQDLSFGPEYIIPKPFDPRLIVKIAPAVAKAAMESGVATRPIADFDVYIDKLTEFVYKTNLFMKPIFSQARKAPKRVVLPEGEEARVLHATQELVTLGLAKPILIGRPNVIEMRIQKLGLQIKAGVDFEIVNNESDPRFKEYWTEYFQIMKRRGVTQEQAQRALISNPTVIGAIMVQRGEADAMICGTVGDYHEHFSVVKNVFGYRDGVHTAGAMNALLLPSGNTFIADTYVNDEPDAEELAEITLMAAETVRRFGIEPRVALLSHSNFGSSDCPSSSKMRQALELVRERAPELMIDGEMHGDAALVEAIRNDRMPDSSLKGSANILVMPNMEAARISYNLLRVSSSEGVTVGPVLMGVAKPVHVLTPIASVRRIVNMVALAVVEAQTQPL | 5.85 ± 0.24 | 6.35 ± 2.2 | 5.84 ± 0.13 | 7.1 ± 0.61 | 5.6 ± 0.15 | 3.13 ± 0.15 | 5.948 ± 0.055 | 10.7 ± 0.31 | 5.97 ± 0.3 | 6.35 ± 0.11 | 12.2 ± 1.3 | 10.983 ± 0.005 |
| MDEFKPEDELKPDPSDRRTGRSRQSSERSERTERGEPQINFDDIELDDTDDRRPTRAQKERNEEPEIEEEIDESEDETVDEERVERRPRKRKKAASKPASRQYMMMGVGILVLLLLIIGIGSALKAPSTTSSDQTASGEKSIDLAGNATDQANGVQPAPGTTSAENTQQDVSLPPISSTPTQGQTPVATDGQQRVEVQGDLNNALTQPQNQQQLNNVAVNSTLPTEPATVAPVRNGNASRDTAKTQTAERPSTTRPARQQAVIEPKKPQATVKTEPKPVAQTPKRTEPAAPVASTKAPAATSTPAPKETATTAPVQTASPAQTTATPAAGAKTAGNVGSLKSAPSSHYTLQLSSSSNYDNLNGWAKKENLKNYVVYETTRNGQPWYVLVSGVYASKEEAKKAVSTLPADVQAKNPWAKPLRQVQADLK | 5.8 ± 0.35 | 6.01 ± 0.27 | 5.595 ± 0.021 | 5.74 ± 0.32 | 5.54 ± 0.12 | 2.84 ± 0.091 | 5.51 ± 0.26 | 9.07 ± 0.37 | 5.58 ± 0.49 | 5.099 ± 0.038 | 10.285 ± 0.01 | 11.9 ± 2 |
| MDEYSPKRHDIAQLKFLCETLYHDCLANLEESNHGWVNDPTSAINLQLNELIEHIATFALNYKIKYNEDNKLIEQIDEYLDDTFMLFSSYGINMQDLQKWRKSGNRLFRCFVNATKENPASLSC [P0AAR0] | 5.61 ± 0.1 | 7.07 |  |  |  |  |  |  |  |  |  |  |
| MDFFSVQNILVHIPIGAGGYDLSWIEAVGTIAGLLCIGLASLEKISNYFFGLINVTLFGIIFFQIQLYASLLLQVFFFAANIYGWYAWSRQTSQNEAELKIRWLPLPKALSWLAVCVVSIGLMTVFINPVFAFLTRVAVMIMQALGLQVVMPELQPDAFPFWDSCMMVLSIVAMILMTRKYVENWLLWVIINVISVVIFALQGVYAMSLEYIILTFIALNGSRMWINSARERGSRALSH [P0AFK2] | 6.22 | 6.15 ± 0.15 | 6.54 | 5.58 ± 0.22 | 5.5 ± 0.096 | 3.29 ± 0.33 | 6.14 ± 0.31 | 11.8 ± 2.2 | 6.05 | 6.07 ± 0.39 |  | 11.5 ± 3 |
| MDFSIMVYAVIALVGVAIGWLFASYQHAQQKAEQLAEREEMVAELSAAKQQITQSEHWRAECELLNNEVRSLQSINTSLEADLREVTTRMEAAQQHADDKIRQMINSEQRLSEQFENLANRIFEHSNRRVDEQNRQSLNSLLSPLREQLDGFRRQVQDSFGKEAQERHTLTHEIRNLQQLNAQMAQEAINLTRALKGDNKTQGNWGEVVLTRVLEASGLREGYEYETQVSIENDARSRMQPDVIVRLPQGKDVVIDAKMTLVAYERYFNAEDDYTRESALQEHIASVRNHIRLLGRKDYQQLPGLRTLDYVLMFIPVEPAFLLALDRQPELITEALKNNIMLVSPTTLLVALRTIANLWRYEHQSRNAQQIADRASKLYDKMRLFIDDMSAIGQSLDKAQDNYRQAMKKLSSGRGNVLAQAEAFRGLGVEIKREINPDLAEQAVSQDEEYRLRSVPEQPNDEAYQRDDEYNQQSR [P0AG71] | 6.83 ± 1.6 | 5.88 ± 0.096 | 4.5 ± 0.072 | 3.82 ± 0.52 | 3.36 ± 0.004 | 2.76 ± 0.076 | 4.87 ± 0.12 | 7.51 ± 0.44 | 3.91 ± 0.74 | 4.59 ± 1.3 | 7.03 ± 0.77 | 7.2 ± 1.9 |
